Data on three molecules can be found in PMC12754632, “ZapA uses a two‐pronged mechanism to facilitate Z ring formation in Escherichia coli” (mLife, 2025).

For one series, the target named is T1, FtsZ^D212N (Escherichia coli, UniProt P0A9A6 1-383, D212N).
T1 construct: also called GTPase mutant (FtsZ^D212N); source: E. coli BL21/pLys, purified (Ni-NTA; His-SUMO tag cleaved with Ulp1); not shown: His-SUMO, N-terminal, cleaved
T1 sequence (looked up): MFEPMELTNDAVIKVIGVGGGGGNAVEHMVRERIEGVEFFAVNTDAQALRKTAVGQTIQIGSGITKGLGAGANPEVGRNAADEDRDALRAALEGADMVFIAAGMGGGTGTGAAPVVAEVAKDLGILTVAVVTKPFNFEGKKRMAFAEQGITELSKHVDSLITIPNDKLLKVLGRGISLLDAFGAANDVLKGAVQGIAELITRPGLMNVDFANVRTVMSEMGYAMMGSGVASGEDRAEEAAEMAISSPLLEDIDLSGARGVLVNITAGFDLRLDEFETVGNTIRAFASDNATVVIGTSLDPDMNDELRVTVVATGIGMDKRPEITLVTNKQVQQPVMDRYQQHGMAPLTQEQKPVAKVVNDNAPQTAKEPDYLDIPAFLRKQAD
Briefly: pull-down; H-SUMO-ZapA (6 μM) and FtsZ (2 μM) in Pol buffer (50 mM HEPES-NaOH pH 6.8, 50 mM KCl, 10 mM MgCl2), GTP in the buffers throughout, held on Ni-NTA agarose, washed with 500 mM NaCl and 20 mM imidazole, eluted with 250 mM imidazole; fractions on SDS-PAGE. The note with it: both partners purified.

A further series addresses T2, wild-type FtsZ (Escherichia coli, UniProt P0A9A6 1-383).
T2 construct: FtsZ, Escherichia coli; Forms filaments with GTP; GTP was present in the pull-down and the sedimentation assays; source: E. coli BL21/pLys, purified (Ni-NTA; His-SUMO tag cleaved with Ulp1); not shown: His-SUMO, N-terminal, cleaved
T2 sequence (looked up): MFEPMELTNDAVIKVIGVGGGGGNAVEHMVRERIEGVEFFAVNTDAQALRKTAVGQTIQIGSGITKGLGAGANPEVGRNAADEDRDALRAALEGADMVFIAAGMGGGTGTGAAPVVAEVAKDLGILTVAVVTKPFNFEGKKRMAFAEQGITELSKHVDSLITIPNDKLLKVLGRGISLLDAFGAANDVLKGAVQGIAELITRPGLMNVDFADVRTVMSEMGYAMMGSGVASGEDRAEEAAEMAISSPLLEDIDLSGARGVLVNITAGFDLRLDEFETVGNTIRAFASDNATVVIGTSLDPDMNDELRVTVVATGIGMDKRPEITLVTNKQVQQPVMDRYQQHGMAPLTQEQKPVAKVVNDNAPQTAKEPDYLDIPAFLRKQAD
The series can be described thus: co-sedimentation; FtsZ or variants (5 μM) with or without equal molar untagged ZapA, 2.5 mM GTP, no Ca2+, room temperature 5 min, ultracentrifugation; pellets and supernatants on SDS-PAGE; 50 mM HEPES pH 6.8, 10 mM MgCl2, 200 mM KCl (legend of Figure 4A). The note with it: both partners purified.

Series [1] concerns the molecule itself. The series can be described thus: sedimentation of polymers; FtsZ variants (5 μM) in Pol buffer with 10 mM CaCl2 and 2.5 mM GTP, room temperature, ultracentrifugation at 100,000 rpm for 15 min at 25°C; polymerization of FtsZ with itself.

B1: H-SUMO-ZapA (natural protein, Escherichia coli, UniProt P0ADS2 1-109, looked up)
chain: MSAQPVDIQIFGRSLRVNCPPDQRDALNQAADDLNQRLQDLKERTRVTNTEQLVFIAALNISYELAQEKAKTRDYAASMEQRIRMLQQTIEQALLEQGRITEKTNQNFE
notes: ZapA, Escherichia coli; Held on Ni-NTA agarose by the His tag in the pull-down; source: E. coli BL21 (DE3)/pLys, purified (Ni-NTA); not shown: His, N-terminal, kept; SUMO, N-terminal, kept
As for B1, the binding result in the series with FtsZ^D212N is given as “binds”.

B2: untagged ZapA (natural protein, Escherichia coli, UniProt P0ADS2 1-109, looked up)
chain: MSAQPVDIQIFGRSLRVNCPPDQRDALNQAADDLNQRLQDLKERTRVTNTEQLVFIAALNISYELAQEKAKTRDYAASMEQRIRMLQQTIEQALLEQGRITEKTNQNFE
notes: ZapA, Escherichia coli; source: E. coli BL21 (DE3)/pLys, purified (Ni-NTA; His-SUMO tag cleaved with Ulp1); not shown: His-SUMO, N-terminal, cleaved
As to B2, in the series with wild-type FtsZ, the binding result was “binds”.

B3: FtsZ^F2A (natural protein, Escherichia coli, UniProt P0A9A6 1-383, looked up)
chain: MAEPMELTNDAVIKVIGVGGGGGNAVEHMVRERIEGVEFFAVNTDAQALRKTAVGQTIQIGSGITKGLGAGANPEVGRNAADEDRDALRAALEGADMVFIAAGMGGGTGTGAAPVVAEVAKDLGILTVAVVTKPFNFEGKKRMAFAEQGITELSKHVDSLITIPNDKLLKVLGRGISLLDAFGAANDVLKGAVQGIAELITRPGLMNVDFADVRTVMSEMGYAMMGSGVASGEDRAEEAAEMAISSPLLEDIDLSGARGVLVNITAGFDLRLDEFETVGNTIRAFASDNATVVIGTSLDPDMNDELRVTVVATGIGMDKRPEITLVTNKQVQQPVMDRYQQHGMAPLTQEQKPVAKVVNDNAPQTAKEPDYLDIPAFLRKQAD
notes: FtsZ, Escherichia coli; source: E. coli BL21/pLys, purified (Ni-NTA; His-SUMO tag cleaved with Ulp1); not shown: His-SUMO, N-terminal, cleaved
In the case of B3, the binding result in series [1] is reported as “binds”.
